Results published in ChEMBL document CHEMBL2074082, “Characterization of the monocarboxylate transporter 1 expressed in Xenopus laevis oocytes by changes in cytosolic pH” (Biochem J, 1998).

How the values were obtained:
Type in all cases: functional, cell-based
Settings in all cases: Oocyte
[1] = substrate: C[C@@H](O)C(=O)O; test: (§1) TP_TRANSPORTER: change in intracellular pH(pHi)value in Xenopus laevis oocytes
[2] = substrate: CC(C)C(=O)C(=O)O; test: as §1
[3] = substrate: CC(C)CC(=O)C(=O)O; test: as §1
[4] = substrate: CC(=O)C(=O)O; test: as §1

B1: Monocarboxylate transporter 1 (Rattus norvegicus), P53987 (protein)
chain: MPPAIGGPVGYTPPDGGWGWAVVVGAFISIGFSYAFPKSITVFFKEIEIIFSATTSEVSWISSIMLAVMYAGGPISSILVNKYGSRPVMIAGGCLSGCGLIAASFCNTVQELYFCIGVIGGLGLAFNLNPALTMIGKYFYKKRPLANGLAMAGSPVFLSTLAPLNQAFFGIFGWRGSFLILGGLLLNCCVAGSLMRPIGPQQGKVEKLKSKESLQEAGKSDANTDLIGGSPKGEKLSVFQTVNKFLDLSLFTHRGFLLYLSGNVVMFFGLFTPLVFLSNYGKSKHFSSEKSAFLLSILAFVDMVARPSMGLAANTRWIRPRVQYFFAASVVANGVCHLLAPLSTTYVGFCIYAGVFGFAFGWLSSVLFETLMDLVGPQRFSSAVGLVTIVECCPVLLGPPLLGRLNDMYGDYKYTYWACGVILIIAGLYLFIGMGINYRLVAKEQKAEEKKRDGKEDETSTDVDEKPKKTMKETQSPAPLQNSSGDPAEEESPV
[1]
  Km: 3500 µM
[2]
  Km: 1250 µM
[3]
  Km: 670 µM
[4]
  Km: 1010 µM
